Km data for one protein are collected here from article PMC9405524, “Pre‐steady‐state kinetics and solvent isotope effects support the “billiard‐type” transport mechanism in Na ^+‐translocating pyrophosphatase” (Protein Science : A Publication of the Protein Society, 2022).

Substrate in this data set: O=P(O)(O)OP(=O)(O)O
The data set can be described thus: PPi hydrolysis in inverted membrane vesicles, automatic Pi analyzer, two-site dimer equation. The data set is classed as biochemical, Thermotoga maritima. Particulars: 40°C, pH 7.2, 0.1 M MOPS-KOH, 5 mM Mg2+, 10 mM NaCl, first (stronger) site of the dimer, concentration counted as Mg2PPi complex. An excerpt: PPi hydrolysis in inverted membrane vesicles, automatic Pi analyzer, two-site dimer equation on Tm‐mPPase (Thermotoga maritima membrane pyrophosphatase)

B1: Tm‐mPPase (Thermotoga maritima membrane pyrophosphatase) (Thermotoga maritima MSB8) (protein)
chain: MYVAALFFLIPLVALGFAAANFAAVVRKPEGTERMKEISSYIRSGADSFLAHETKAIFKVAIVIAILLMIFTTWQTGVAFLLGAVMSASAGIVGMKMATRANVRVAEAARTTKKIGPALKVAYQGGSVMGLSVGGFALLGLVLVYLIFGKWMGQVDNLNIYTNWLGINFVPFAMTVSGYALGCSIIAMFDRVGGGVYTKAADMAADLVGKTELNLPEDDPRNPATIADNVGDNVGDVAGLGADLLESFVGAIVSSIILASYMFPIYVQKIGENLVHQVPKETIQALISYPIFFALVGLGCSMLGILYVIVKKPSDNPQRELNISLWTSALLTVVLTAFLTYFYLKDLQGLDVVGFRFGAISPWFSAIIGIFSGILIGFWAEYYTSYRYKPTQFLSKSSIEGTGMVISNGLSLGMKSVFPPTLTLVLGILFADYFAGLYGVAIAALGMLSFVATSVSVDSYGPIADNAGGISEMCELDPEVRKITDHLDAVGNTTAAIGKGFAIGSAIFAALSLFASYMFSQISPSDIGKPPSLVLLLNMLDARVIAGALLGAAITYYFSGYLISAVTKAAMKMVDEIRRQAREIPGLLEGKAKPDYNRCIEITSDNALKQMGYPAFIAILTPLVTGFLLGAEFVGGVLIGTVLSGAMLAILTANSGGAWDNAKKYLEAGNLEGYGKGSEPHKALVIGDTVGDPLKDTVGPSLDILIKIMSVVSVIAVSIFKHVHLF
notes: recombinant in E. coli C41(DE3), assayed in inverted membrane vesicles; homodimer, subunit mass 77 kDa
Take B1: the Km turned out to be 1.41 ± 0.04 µM.
